Measured values: patent US20090203041A1, “BMP4 INHIBITORS” (priority 2006, published 2009)
Entries after “also recorded” stand apart in the source; their conditions may differ.

Assays:
[1] = molecular target: T1, BMP4 (Homo sapiens, UniProt P12644); assay: BMP4-induced C2C12 cell differentiation assay, peptide preincubated with BMP4; assay type: cell-based; settings: peptide 5 μm preincubated with BMP4 100 ng/mL; C2C12 cells, ALP activity
T1 sequence (P12644 293-408): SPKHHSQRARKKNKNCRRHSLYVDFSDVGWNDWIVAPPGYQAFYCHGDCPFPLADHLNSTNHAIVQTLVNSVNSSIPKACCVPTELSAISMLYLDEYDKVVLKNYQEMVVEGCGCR
Procedure: (§1) To test whether exogenous expression of Gremlin can inhibit the activity of exogenously expressed BMP4, the activity of BMP4 secreted into the CM was measured by its effect on mouse myoblast C2C12 cell differentiation into osteoblasts. C2C12 cells were grown in 96-well plate until 90% confluence. Agents (100 ng/ml BMP4 or equivalent amounts of concentrated conditioned medium) were then added into the culture medium (Dulbecco's modified Eagle's medium with 5% fetal bovine serum) and the cells were cultured for 3 days. The cells were then lysed with 0.1% Triton X-100, and the alkaline phosphatase (ALP) activity in the cell lysate was quantified by adding substrate p-nitrophenyl phosphate and measuring absorbance at A405. Triplicate measurements were preformed for every sample. Conditioned media from cells transfected with control, Myc-BMP4, GRE-HA, or Myc-BMP4 and GRE-HA were assayed for BMP4 activity.
The function of the 30 amino acid Gremlin motif in mediating interaction between Gremlin and BMP4 and BMP4 inhibitor activity was assayed by the BMP4-induced C2C12 cell differentiation assay. A linear peptide corresponding to the mapped amino acid sequence (145-174) was synthesized by Genscript (Scotch Plains, N.J.).

[2] = molecular target: Myc-tagged mouse BMP4 (Myc-BMP4) (mouse) (UniProt P21275); assay: cell-based or functional assay
[3] = molecular target: T2, BMP4 (Mus musculus, UniProt P21275); assay: BMP4-stimulated C2C12 cell differentiation assay (alkaline phosphatase activity) with conditioned medium of transfected COS-1 cells; assay type: cell-based; settings: C2C12 ALP activity
T2 construct: mature but no precursor BMP4 was detected in the concentrated CM; expressed in transfected cells; host or cells: COS-1 cells (conditioned medium applied to C2C12 cells)
T2 sequence (P21275 with tags, fused parts or gaps): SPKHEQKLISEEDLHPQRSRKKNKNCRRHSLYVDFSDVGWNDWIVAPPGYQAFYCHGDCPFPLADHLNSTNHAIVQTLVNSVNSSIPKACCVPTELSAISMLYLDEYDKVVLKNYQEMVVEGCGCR
Procedure: (§2) To test whether exogenous BMP4 and Gremlin physically interact intracellularly, Myc-BMP4 and GRE-HA were co-transfected into COS-1 cells using Lipofectamine Plus (Invitrogen). Transfected cells were first cultured in medium containing 10% fetal calf serum for 20 hours and then cultured in serum-free conditioned medium (CM) for an additional 48 hours, and experiments were repeated at least three times.
as §1
CM collected separately from cells transfected with Myc-BMP4 or GRE-HA was mixed and preincubated for 1 hour before adding to C2C12 cells (1). COS-1 cells were transfected separately with Myc-BMP4 or GRE-HA, trypsinized and co-cultured during CM collection (2).

[4] = molecular target: T3, Myc-BMP4 (Mus musculus, UniProt P21275, INS296EQKLISEEDL); assay: Co-immunoprecipitation of Myc-BMP4 with HA-tagged Gremlin proteins co-expressed in COS-1 cells (anti-HA IP, anti-Myc Western blot); assay type: binding; settings: co-transfected COS-1 cells
T3 construct: expressed in transfected cells; host or cells: COS-1 cells
T3 sequence (P21275 with tags, fused parts or gaps limits assumed): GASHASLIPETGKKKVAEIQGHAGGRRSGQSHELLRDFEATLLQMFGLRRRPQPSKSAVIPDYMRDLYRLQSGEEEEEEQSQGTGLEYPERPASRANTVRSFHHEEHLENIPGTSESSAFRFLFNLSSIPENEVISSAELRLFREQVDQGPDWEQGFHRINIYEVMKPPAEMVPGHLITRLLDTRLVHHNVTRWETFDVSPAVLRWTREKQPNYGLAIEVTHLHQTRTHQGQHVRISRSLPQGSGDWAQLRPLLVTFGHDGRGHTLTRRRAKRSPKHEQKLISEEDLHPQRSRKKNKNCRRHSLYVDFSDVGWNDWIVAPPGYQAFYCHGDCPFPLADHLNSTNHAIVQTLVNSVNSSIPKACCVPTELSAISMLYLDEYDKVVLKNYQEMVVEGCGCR
Procedure: as §2
To determine the specificity of BMP4-Gremlin binding and the molecular motif of Gremlin that is responsible for the intermolecular interaction, two truncated Gremlin molecules, GRE-DAN-HA and GRE-NF-HA, were generated with truncation of the NH2-terminal fragment (NF) or the carboxyl-terminal DAN domain (DAN), respectively, as diagramed in FIG. 6A (amino acid positions are in reference to SEQ ID NO:4). The two truncated Gremlin molecules were co-transfected with Myc-BMP4 into COS-1 cells, and immunoprecipitation was performed with anti-HA antibodies.
Partial cDNA of mouse Mucin-2, which encodes a Mucin-2 protein fragment of 114 amino acids on the carboxyl terminus (PQNQ . . . LGRK, GenBank™ accession number XP—620590) was generated by high fidelity RT-PCR (Pfu, Stratagene) and verified by DNA sequencing. An HA epitope was also added to the carboxyl terminus of Mucin-2 by inverted PCR. A variety of Gremlin-Mucin-2 chimeric cDNA constructs were created by inverted PCR in combination with restricted digestion and ligation of PCR products. The Gremlin-Mucin-2 chimeras generated are as diagrammed in FIG. 7B. These HA-epitope tagged Gremline-Mucin-2 chimera proteins were co-expressed with Myc-BMP in COS-1 cells by transient transfection. The BMP4 binding activities and inhibitory activities were evaluated by immunoprecipitation and BMP4-stimulated C2C12 cell differentiation assay as described in Examples 3 and 4. The results for the Gremlin-Mucin-2 chimeras are seen in FIGS. 8A and 8B.

**Q.** How did the “inhibition of BMP4 activities” value [1] turn out when “PKKFTTMMVTLNCPELQPPTKKKRVTRVKQ (listed as Homo sapiens) [linear peptide]” was run?
**A.** The value was 56±10%.

B1: HA-tagged mouse Gremlin (GRE-HA) (protein, not shown: small tags and cut ends)
chain: KKKGSQGAIPPPDKAQHNDSEQTQSPPQPGSRTRGRGQGRGTAMPGEEVLESSQEALHVTERKYLKRDWCKTQPLKQTIHEEGCNSRTIINRFCYGQCNSFYIPRHIRKEEGSFQSCSFCKPKKFTTMMVTLNCPELQPPTKKKRVTRVKQCRCISIDLD
**Q.** Which inhibition of BMP4 activity (alkaline phosphatase activity, C2C12 cell differentiation assay); CM of Myc-BMP4 cells mixed with an equal amount of CM of GRE-HA cells [2] does the source give for B1 here?
**A.** The inhibition of BMP4 activity (alkaline phosphatase activity, C2C12 cell differentiation assay); CM of Myc-BMP4 cells mixed with an equal amount of CM of GRE-HA cells was 20%.

**Q.** What about the inhibition of BMP4 activity (alkaline phosphatase activity, C2C12 cell differentiation assay); CM of cells co-transfected with Myc-BMP4 and GRE-HA [2] of the same molecule?
**A.** The inhibition of BMP4 activity (alkaline phosphatase activity, C2C12 cell differentiation assay); CM of cells co-transfected with Myc-BMP4 and GRE-HA was 86%.

**Q.** And the inhibition of BMP4 activity (alkaline phosphatase activity, C2C12 cell differentiation assay); CM of co-cultured cells transfected separately with Myc-BMP4 or GRE-HA [2]?
**A.** The inhibition of BMP4 activity (alkaline phosphatase activity, C2C12 cell differentiation assay); CM of co-cultured cells transfected separately with Myc-BMP4 or GRE-HA was 55%.

B2: GRE-HA: HA-epitope tagged mouse Gremlin, full length, expressed by transfection (protein)
chain: KKKGSQGAIPPPDKAQHNDSEQTQSPPQPGSRTRGRGQGRGTAMPGEEVLESSQEALHVTERKYLKRDWCKTQPLKQTIHEEGCNSRTIINRFCYGQCNSFYIPRHIRKEEGSFQSCSFCKPKKFTTMMVTLNCPELQPPTKKKRVTRVKQCRCISIDLD
modifications: left off: small tags and cut ends
**Q.** B2 was tested. Which BMP4 inhibitory effect ([3]; CM from COS-1 cells transfected separately with Myc-BMP4 or GRE-HA and co-cultured during CM collection) did it give?
**A.** Its BMP4 inhibitory effect is 55±5%.

**Q.** And the BMP4 activity inhibited ([3]; CM of Myc-BMP4 transfected cells plus equal amount of CM from GRE-HA transfected cells, mixed and preincubated 1 hour)?
**A.** The BMP4 activity inhibited was 20±9%.

**Q.** And the BMP4 activity inhibited ([3]; cells co-transfected with Myc-BMP4 and GRE-HA, p<0.05)?
**A.** Its BMP4 activity inhibited is 86±4%.

**Q.** What about the “BMP4 binding (co-immunoprecipitation of Myc-BMP4)” value (from here on “BMP4 binding”) [4] of the same molecule?
**A.** Its value is “Myc-BMP4 precursor was found in the cell lysate; also recorded: retained its BMP4 binding activity”.

B3: GRE-NF-HA: truncated HA-tagged Gremlin with the carboxyl-terminal DAN domain deleted (protein)
chain: KKKGSQGAIPPPDKAQHNDSEQTQSPPQPGSRTRGRGQGRGTAMPGEEVLESSQEALHVTERKYLKRDW
modifications: left off: small tags and cut ends
notes: truncated HA-tagged Gremlin with the carboxyl-terminal DAN domain deleted
**Q.** How did the “BMP4 binding” value [4] turn out when B3 was run?
**A.** The value was “completely abolished”.

B4: GRE-DAN-HA: truncated HA-tagged Gremlin with the NH2-terminal fragment deleted (protein)
chain: CKTQPLKQTIHEEGCNSRTIINRFCYGQCNSFYIPRHIRKEEGSFQSCSFCKPKKFTTMMVTLNCPELQPPTKKKRVTRVKQCRCISIDLD
modifications: left off: small tags and cut ends
notes: truncated HA-tagged Gremlin with the NH2-terminal fragment deleted
**Q.** For B4, which “BMP4 binding” value [4] is on record?
**A.** The value was “retained its BMP4 binding activity”.
